Laboratory results from paper PMC11282193, “Mst1-mediated phosphorylation of FoxO1 and C/EBP-β stimulates cell-protective mechanisms in cardiomyocytes”.

B1: Mt-3xDBE (Biotin-FHRE-mutant) (dsDNA)
DNA 1: ACTTACCCACGAGTTACCCACGAGTTACCCACCA
DNA 2: TGGTGGGTAACTCGTGGGTAACTCGTGGGTAAGT
B2: WT-3xDBE (Biotin-FHRE-wild type) (dsDNA)
DNA 1: CCTTGTTTACGGGTTGTTTACGGGTTGTTTACCC
DNA 2: GGGTAAACAACCCGTAAACAACCCGTAAACAAGG

How the values were obtained:
FoxO1 = FoxO1 (UniProt G3V7R4); experiment: C/EBP-β IP, FoxO1 immunoblot; details: reference: C/EBP-β-WT; sites T299
C/EBP-β = C/EBP-β (UniProt P21272); experiment: co-immunoprecipitation from cardiomyocytes; details: reference: FoxO1(S209A); sites S215,S218,T228,S232,S243
FoxO1-WT = FoxO1-WT (mouse, UniProt Q9R1E0 1-652); experiment: pull-down; without Mst1; EMSA: 20 mM Tris-HCl pH 8.0, 40 mM KCl, 5% glycerol, 0.4 mM DTT, 0.2 mM EDTA, 2 mM MgCl2, 1 mg/ml BSA, 20 ng poly(dI-dC), on ice 15 min, 50 ng protein; pull-down (1x buffer): 10 mM HEPES pH 8, 50 mM KCl, 2.5 mM MgCl2, 1 mM EDTA, 1 mM DTT, 0.1% IGEPAL, 4 C 2 h; details: protein: recombinant; tags: GST removed by PreScission (general method); label: 5' biotin on sense strand; blunt
FoxO1-WT, sequence (Q9R1E0 whole entry): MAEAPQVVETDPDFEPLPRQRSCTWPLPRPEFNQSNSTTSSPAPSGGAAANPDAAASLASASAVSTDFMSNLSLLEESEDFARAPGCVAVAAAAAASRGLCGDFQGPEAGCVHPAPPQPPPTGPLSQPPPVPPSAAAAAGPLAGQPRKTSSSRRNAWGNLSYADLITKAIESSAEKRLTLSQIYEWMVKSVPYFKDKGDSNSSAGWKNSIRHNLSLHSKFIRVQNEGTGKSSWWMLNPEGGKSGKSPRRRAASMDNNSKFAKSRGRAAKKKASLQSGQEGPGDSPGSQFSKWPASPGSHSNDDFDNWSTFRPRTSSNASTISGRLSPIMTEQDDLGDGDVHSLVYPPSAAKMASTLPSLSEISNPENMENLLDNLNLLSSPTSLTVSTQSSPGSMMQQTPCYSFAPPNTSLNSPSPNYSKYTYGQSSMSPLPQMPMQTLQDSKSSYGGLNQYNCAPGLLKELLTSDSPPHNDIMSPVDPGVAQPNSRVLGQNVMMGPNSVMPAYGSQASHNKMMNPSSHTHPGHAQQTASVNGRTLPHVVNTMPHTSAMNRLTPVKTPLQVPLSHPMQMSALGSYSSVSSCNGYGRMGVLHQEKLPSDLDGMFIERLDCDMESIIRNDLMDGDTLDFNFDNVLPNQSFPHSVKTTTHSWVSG

| Molecule | binding result (FoxO1-WT) | further results |
| --- | --- | --- |
| C/EBP-β (from UniProt P17676) C/EBP-β-PR (T299A) |  | binding against the reference (FoxO1): weaker |
| FoxO1 (from UniProt Q9R1E0) FoxO1-PR (six sites to Ala) |  | binding against the reference (C/EBP-β): lost |
| B1 | no binding |  |
| B2 | binds |  |
